# Source: the DeepSol protein solubility set
# Assay: soluble on expression in E. coli; label from the status in PepcDB or PDB records
row,Sequence,soluble on expression in E. coli
1,MSLTPATETVSPISQWYDMMTRMFPDQRLTFLNYGYLAQDSDFDWINDADLEQKCSVNLIRTLLGDSDLRGKKVLEIGSGRGGNCSYLARYTGAASVTGLDFCPAHIELCNRVHALPGLSFVGGDAMALPFADNEFDVVINIESSHCYPDLNTFGAEVQRVLKQDGRFFYADTMKGDNTSALSEPDSIGVDFFSNVLAQHQAMIEHARFKVEEHRDISDGVIRAFESQDGHLKHLLRSLVEEKKQQREPLPPEVWHAFDTMFHFFDDSGIKAYKNGHLAYKFWRLQKAAEGHHHHHH,not soluble
2,MAISNILPRKIMKNRTRQQSMAERHDYDQKEEKTDGGELVSSYMCSPETAAEEFEISKKLYAQLTGRSQSEKHDIIMYRIIQSFKPDEVSPEEAHKIGCELAMKFTGGQHQFVVATHTDKRHIHTHIEFNSTNLNCDAKFQNVKNSAFILRRMNDELCRAHGLSVIENPKKKARPQKEMAAAQYGVSHKKQLQQAIDRLLPECNHYEEFLAKMRAEGYEVVDGKNPGFRLPGWDRPTRVNRLGDDYTKTALRARITSQRRRLTSGKTAPKRTGRKVNLLIDIQAKLAAGKGAGYERWAKIFNLKEAAKTLNFLIENNLTDYDELALRAEQAENGFNAVSQKIKQLEARMAGIAQLKTHIIQYSKTREVYAAYKKSRHKKEFLAEHGAEIAQHEAAKKAFDALNGKAIPKVAQLSAEYAALLEEKREQYEQYKTLRQDMITYQTALRNMDKILGLEPPEQAQEKEQTKPER,not soluble
3,SSSLKIASTQEARQYFDTDRVVVDAVGSDFTDVGAVIAMDYETDVIDAADATKFGIPVFAVTKDAQAISADELKKIFHIIDLENKFDATVNAREIETAVNNYEDSILPPFFKSLKEYVSRYLIQFDCPGHQGGQYYRKHPAGREFYDFFGETVFRADLCNADVALGDLLIHEGPAVAAEKHAARVYNADKTYFVLGGSSNANNTVTSALVSNGDLVLFDRNNHKSVYNSALAMAGGRPVYLQTNRNPYGFIGGIYDSDFDEKKIRELAAKVDPERAKWKRPFRLAVIQLGTYDGTIYNAHEVVKRIGHLCDYIEFDSAWVGYEQFIPMMRNSSPLLIDDLGPEDPGIIVVQSVHKQQAGFSQTSQIHKKDSHIKGQLRYCDHKHFNNSFNLFMSTSPFYPMYAALDVNAAMQEGEAGRKLWHDLLITTIEARKKLIKAGSMFRPFVPPVVNGKKWEDGDTEDMANNIDYWRFEKGAKWHAYEGYGDNQYYVDPNKFMLTTPGINPETGDYEDFGVPATIVANYLRDHGIIPEKSDLNSILFLMTPAETPAKMNNLITQLLQLQRLIEEDAPLKQVLPSIYAANEERYNGYTIRELCQELHDFYKNNNTFTYQKRLFLREFFPEQGMLPYEARQEFIRNHNKLVPLNKIEGEIALEGALPYPPGVFCVAPGEKWSETAVKYFTILQDGINNFPGFAPEIQGVYFKQEGDKVVAYGEVYDAEVAKNDDRYNN,soluble
4,MSLSKILPVVTACLLATTMGASASSIPEKASVCSGCHGQDGMGQPNIAPMIAGLNANYLNTQIELFLSGERQNVVMQGMAKELSDPAVRKEVMNYFANLPSYEFTNPEQRGDQADIRNPYRKLIFQGDWDRNIPACATCHGASGMGVDKFPRLASQHADYLKTQLMAWKIGTRSGDPLNMMGTIAKNLTDEEIENLSYYFASLRYEGHHHHHH,not soluble
5,MRILHTSDWHLGQNFYSKSREAEHQAFLDWLLETAQTHQVDAIIVAGDVFDTGSPPSYARTLYNRFVVNLQQTGCHLVVLAGNHDSVATLNESRDIMAFLNTTVVASAGHAPQILPRRDGTPGAVLCPIPFLRPRDIITSQAGLNGIEKQQHLLAAITDYYQQHYADACKLRGDQPLPIIATGHLTTVGASKSDAVRDIYIGTLDAFPAQNFPPADYIALGHIHRAQIIGGMEHVRYCGSPIPLSFDECGKSKYVHLVTFSNGKLESVENLNVPVTQPMAVLKGDLASITAQLEQWRDVSQEPPVWLDIEITTDEYLHDIQRKIQALTESLPVEVLLVRRSREQRERVLASQQRETLSELSVEEVFNRRLALEELDESQQQRLQHLFTTTLHTLAGEHEA,soluble
6,MQVFCFTPKGEVVKLPRGATPIDFAFAIHTRIGMACVGAKVDHMRVPLWTRLKNGQSVEVITAEGQSPQATWLEHHHHHH,not soluble
7,MTSSFLYVLFTVSCLAALVSISEACFASGICGGGCPPPPPPMCSGGCGGGYSCGSYGCYRARARGSKTLSFKKPSEMNPDERFMKCCEDRNLPDSCLSKCSYRSYTKSALQSMYFKQDSCPMQAAADIQFCAAQGKDHTACCARNAVGTTLAGNKCFTFCDQRPGNVTQLDMSYLACYDRFENMKACFYQKASEASDPIVSFSNDRDNNREFAVDTETAEFRRPSQEHFRAPTSPQLPQNPLFAVQNLLARTFGQ,not soluble
8,MDPSLLRERELFKKRALSTPVVEKRSASSESSSSSSKKKKTKVEHGGSSGSKQNSDHSNGSFNLKALSGSSGYKFGVLAKIVNYMKTRHQRGDTHPLTLDEILDETQHLDIGLKQKQWLMTEALVNNPKIEVIDGKYAFKPKYNVRDKKALLRLLDQHDQRGLGGILLEDIEEALPNSQKAVKALGDQILFVNRPDKKKILFFNDKSCQFSVDEEFQKLWRSVTVDSMDEEKIEEYLKRQGISSMQESGPKKVAPIQRRKKPASQKKRRFKTHNEHLAGVLKDYSDITSSK,not soluble
9,MIVLALDVYEGERAIKIAKSVKDYISMIKVNWPLILGSGVDIIRRLKEETGVEIIADLKLADIPNTNRLIARKVFGAGADYVIVHTFVGRDSVMAVKELGEIIMVVEMSHPGALEFINPLTDRFIEVANEIEPFGVIAPGTRPERIGYIRDRLKEGIKILAPGIGAQGGKAKDAVKAGADYIIVGRAIYNAPNPREAAKAIYDEIRGV,soluble
10,MSLPPRPYDNRPPTGVRAKPVINLNIEYTSCNDSVAPACSTRPMLIENMINQRNVNINVLEGYDPKSKSVINQHSIYHLYEFESKTRFLDRIPRPRVSRFTELKTRFLCCRYVLCAIDDVMQKQKPMELMAIRLNGDIYIGANKSMDLQTDKKTQEAAFGGLNFAMKVTRESDQKILKKHHSVVKQLRIENTRNSMSMSIFVSSVARAFDQRGNVVELKTVGSKVMGKVQNLSRLKARDWWLRALLSGADRIVYGLRMDNMKVNEIHEAQLTDFTKGHFRFDGAKLFSEIFKIFSTIDKIIGAEGDMCMVKSDGSTPISVTLTTRESLKRSPFW,not soluble
11,MSLNKSVIGTKQMVVSPHYLASQAGNRILDKGGNAFDAAVAVSACLAVVYPHMTGLGGDSFWLTFHQETKAVKVYNGSGRSGKNVTRDVYKGKSAIPLRGIDSAITVPGMVDSWDAVLKEYGRLSLADVLEPARDYAQNGFPVSADQCRHTEKNIELLASTPYTADIFTRRGKAPVPGERFVQKELADSLNLIAEKGRSAFYEGDLAQRIVSHLQNNGSYMTIDDFKAHRGEWAAPVSSDYRGYSVYQAPPNSQGFTGLLTLNILENYDFTQIEHGSFEYYHVLVEALKKSFLDRDAVLTDPAFADIPLERLLDKRYAKQLAEEIGYLAIPAESRPVGSDTAYAAVIDADGNAVSFIQSLYFEFGSAVTAGDTGILLQNRGSFFSLDENHVNTLEPRKRTFHTLMPAMVCKGGKPKILYGTQGGEGQPQTQTAIITRMLDYGMHPQQAISEPRWVWGRTWGEEYEGLRVEGRFTDKTIQKLKDSGHLVEVVGDYDPLMGQAAAIKVDEEGFLQGGADPRGDGAAVGEGHHHHHH,not soluble
12,MSLNHILETLIKLLKVGMEAIDRKGLIAILTSSIGNDEMDDSEQAVMVYNELIDKLQLNIPKDVDYRPNIYSYFGIQKKPNDTILVEMMISIFHIKRFDSELFVFKDKGWQKVNEDELQGLISKMIQVLLVDYKPSLSILKNVVVGLQNSIDVEELVENKQYIGCGHNMFNLDAFEVVGNSIKIFPATRLNLELVKSDVITEKTPPHFNRYMLEFANFDSDLQYFLFQHIAVLLTANTKYRRALLLYGGAKNGKSVFINLVRSFFYSEDIVSKALNELQGRFDKESLVGKKLMASDEIGESRIQEKIVNDLKKLVSVEPVHVDRKGKTQVETTLDLKLAFGTNARLNFPSAHAKALERRIAVIPCEYYVEKADPDLIEKLQDEKKEIFLYLMYVYKQIVKNDIEYLQNDRVTEISHDWLNFGYEFVSSKSASIANQKACINLLRKLIEIKPGSRIKVSELNKVINEEIKVSSQVIKQLIQANFDTQTKLYNGYDYWIDLGWKEADKKEIHDISKKDNIISLDKNENITDDETLDEENLDFDWEDFDDEGHHHHHH,soluble
13,MAHHHHHHMAADEDAREHRTMCRLLQAATGKLSDMTVTTNIETHIATLRAANMSTSPKEWHALFNSKNNSNAYEKLSAEGKKEAGALGGAAAWGAWRTDKEEAEKKKIGTQEDKDFPAIADARQQFAAHNRLLELTAKAVEISKKWKAAKDFITNDETNNIQKLLREALYEDGAAADALTQSTSFGTGSNWASHCNGDDKRKSISGDFLCMRGGSGGAAKECSGAFTGAEIDNQGTITTKWADLKASCALNTENVITPHEIAAALGSLARQPHTTRSSK,not soluble
14,MMDFSHIVSEDKIKRAIKDGDFQNLPGMGKPLPKMTRHTCRNRCAWAIVFLEHHHHHH,not soluble
15,MGSDKIHHHHHHMMENFPKPVVVVSKCLGFDSCRYNGDIIDAPFVDKLRSHVTFVPVCPEVEIGLGVPRKPIRIVSDKGITTLYQPATGKDFTGTMRSFVDDFLGSLTEVDGFLLKNRSPSCGVGDVKIHAGFDEGARMFRGSGFLGGAVLERFAGLPVEDEGRIRNFTIREHFLTRLFLFARFREVKKSGSMRGLVDFHSLQKLLLMGYNQAQMRLLGKIVANHEKADWNTMITRYEEQLKRALANPPRFTAMINVLLHAFGGFSNVLAKEEKAFFLDLIEEYRDERIPLSALLQVLRGWSIRFRNDYLLGQTFLQPYPGQLSKITDSGKGREP,not soluble
16,MSVTVEQEAYEMPADNKKVMLKIEEVHLHSCGVFSNVYKGILREPYEKKIAIKKSWPEKGERNFEFIFLTGRERAKHKNVIHMIFAFSHSYDTKVCESYVFDFMPNTLAEVIRQKLTDLDIRLYTWQIFSGLKYLEEHKVVHRDLKPVNILVDHDTAFLKISDFGSAKIIVKGKANNFYQVTRFYRPPELLMKAMEYNSTVDVWSAGCIMAEMVKRHVVFPGRDSAHQLKLYCRCFGAPNEQDISAMKGEKLEKEYWKFTKGFGLQRLVNDISPDQLQFIKRILVYAPEKRLRGKQLLQDDFFRPLFKAGAVRHNGQKISDVITAADYKRAAENEESSACRLAQLVKTDNKDLGIPYCEKSNSYENVYARRSTLIPKEQKMARDNKSKEDSSDDRRVAPSSGEAPSAPGKRSESNKTAAIAKKSTMKSVMNAPPPRQKPE,not soluble
17,QRNGFCRLPADEGICKALIPRFYFNTETGKCTMFSYGGCGGNENNFETIEECQKACGAPERVNDFESADFKTGCEPAADSGSCAGQLERWFYNVQSGECETFVYGGCGGNDNNYESEEECELVCKNM,soluble
18,MGKSSNIVFDRIKEERQMLSFFKIFQRADLSSDCMRALPYSFISKVSEKDFSYKMVIRAQWGKTWDVEVSKNPTYYYIETRGWDLFVSDNALGQNEFITFTHRGNMVFHVNIYEQNGLEMRKPRKFQTMGPSSGIKKEEGENSLIDVKKEEESDESPGRAEFLVRKKKTEDSKSSKKKMTRNKVKKKSKSKSKQVLDGVPEFKITIRKSYLKFLAIPKHFVDDHIPNKSKIFTIRHPNGGSWKVLCLVREIRTIFSGGYSKLAREFPLMVGDKCTFKLIKPFEFVLLTSKKNREKMDQCMID,soluble
19,YTVEPVQDGERSVTLRRAGGTPLVAAMYHLPAAGSPDFVGLDLAATILADTPSGRLYHALVPTKLASGVFGFTMDQLDPGLAMFGAQLQPGMDQDKALQTLTATLESLSSKPFSQEELERARSKWLTAWQQTYADPEKVGVALSEAIASGDWRLFFLQRDRVRDAKLDDVQRAAVAYLVRSNRTEGRYIPTEKPQRAPLAQR,not soluble
20,MSFKDFSFEFNGEPIHFSITSHPDKDLVHFNSTGRIGQVIEVIQPPEILSSQLSDQQRVEYELKSLLGNPELPGVELFIRRFVIHFAGTNQRKSALFVFGIDLDGIPNECIAAALQALEENH,not soluble
